The record followed here is patent US12534531 (MacroGenics, dated 2026).

Test [1] has as its target T1, human PD-1 expressed on the surface of cells (NSO cells expressing human PD-1; MNFAT-luc2/PD-1 Jurkat cells) (human, UniProt Q15116 21-288).
T1 construct: also called cell surface PD-1; PDCD1 transfected NSO cells expressing PD-1
Put plainly: FACS saturation binding to NSO cells expressing PD-1; single experiment.

Test [2] has as its target T1, human PD-1 expressed on the surface of …. Nature of the test: FACS: inhibition of sPD-L1 binding to PD-1 on NSO cells; SM; SD 0.1729.
The target in test [3] is T2, biotinylated-soluble human LAG-3-Fc fusion protein (human, UniProt P18627 23-450, biotinylated (site not stated)).
T2 construct: whole entry named; also called shLAG-3; shLAG-3-Fc; not shown: Fc
T2 sequence: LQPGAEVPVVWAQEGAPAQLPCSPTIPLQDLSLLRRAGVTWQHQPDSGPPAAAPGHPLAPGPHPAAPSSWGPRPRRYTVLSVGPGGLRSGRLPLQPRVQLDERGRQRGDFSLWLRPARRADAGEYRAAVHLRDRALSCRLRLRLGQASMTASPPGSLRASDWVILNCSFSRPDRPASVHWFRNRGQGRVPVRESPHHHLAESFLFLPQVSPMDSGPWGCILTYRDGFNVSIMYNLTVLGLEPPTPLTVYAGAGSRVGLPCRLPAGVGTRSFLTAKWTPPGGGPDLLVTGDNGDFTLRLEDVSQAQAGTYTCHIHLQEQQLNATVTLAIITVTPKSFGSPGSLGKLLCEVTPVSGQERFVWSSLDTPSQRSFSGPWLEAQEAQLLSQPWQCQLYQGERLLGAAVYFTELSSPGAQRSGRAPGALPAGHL
Put plainly: FACS: inhibition of shLAG-3-Fc binding to MHC II on Daudi cells (column head prints EC50); SM; SD 1.2674.

For test [4], the target named is T1, human PD-1 expressed on the surface of …. Put plainly: FACS: inhibition of sPD-L2 binding to PD-1 on NSO cells; SM; SD 0.0846. A general note: Flow cytometry measures light scatter and fluorescence of single cells or particles in a stream.
Test [5] concerns the target T3, human LAG-3 expressed on NSO cells (human, UniProt P18627 29-525).
T3 sequence: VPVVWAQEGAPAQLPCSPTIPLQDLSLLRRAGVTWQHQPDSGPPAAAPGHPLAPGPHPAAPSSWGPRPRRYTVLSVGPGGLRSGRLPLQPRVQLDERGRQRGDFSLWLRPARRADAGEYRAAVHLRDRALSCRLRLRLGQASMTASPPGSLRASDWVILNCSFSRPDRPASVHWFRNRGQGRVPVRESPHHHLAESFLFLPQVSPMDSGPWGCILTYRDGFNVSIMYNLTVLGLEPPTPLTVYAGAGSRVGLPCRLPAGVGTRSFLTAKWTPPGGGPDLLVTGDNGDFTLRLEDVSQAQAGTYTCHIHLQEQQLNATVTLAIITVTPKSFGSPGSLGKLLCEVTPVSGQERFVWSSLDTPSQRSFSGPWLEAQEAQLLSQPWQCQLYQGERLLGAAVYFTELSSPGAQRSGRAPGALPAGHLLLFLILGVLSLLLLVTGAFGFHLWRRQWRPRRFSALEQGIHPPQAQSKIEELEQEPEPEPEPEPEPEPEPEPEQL
Put plainly: FACS saturation binding to NSO cells expressing LAG-3; SM; SD 0.5770.

Test [6] concerns the target T1, human PD-1 expressed on the surface of …. Nature of the test: FACS: inhibition of sPD-L2 binding to PD-1 on NSO cells; SM; SD 0.7736.
In test [7] the target is T2, biotinylated-soluble human LAG-3-Fc …. Put plainly: FACS: inhibition of shLAG-3-Fc binding to MHC II on Daudi cells (column head prints EC50); SM; SD 2.9177.
In test [8] the target is T1, human PD-1 expressed on the surface of …. Nature of the test: FACS: inhibition of sPD-L1 binding to PD-1 on NSO cells; SM; SD 0.3307.
Test [9] shares this target. Nature of the test: FACS saturation binding to NSO cells expressing PD-1; SM; SD 0.5742.
In test [10] the target is T3, human LAG-3 expressed on NSO cells. Put plainly: FACS saturation binding to NSO cells expressing LAG-3; SM; SD 0.8075.

T1 sequence (Q15116 21-288): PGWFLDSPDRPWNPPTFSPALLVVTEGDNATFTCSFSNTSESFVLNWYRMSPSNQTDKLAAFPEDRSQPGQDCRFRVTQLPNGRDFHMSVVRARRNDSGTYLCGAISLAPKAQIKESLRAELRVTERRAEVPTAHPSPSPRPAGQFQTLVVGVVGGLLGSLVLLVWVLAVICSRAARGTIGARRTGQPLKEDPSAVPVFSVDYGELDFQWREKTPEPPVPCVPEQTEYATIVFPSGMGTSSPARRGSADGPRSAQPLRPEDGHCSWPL

B1: DART F (bispecific antibody, human IgG1, kappa, L234A L235A)
chain 1: QVQLVQSGAEVKKPGASVKVSCKASGYSFTSYWMNWVRQAPGQGLEWIGVIHPSDSETWLDQKFKDRVTITVDKSTSTAYMELSSLRSEDTAVYYCAREHYGTSPFAYWGQGTLVTVSSASTKGPSVFPLAPSSKSTSGGTAALGCLVKDYFPEPVTVSWNSGALTSGVHTFPAVLQSSGLYSLSSVVTVPSSSLGTQTYICNVNHKPSNTKVDKRVEPKSCDKTHTCPPCPAPEAAGGPSVFLFPPKPKDTLYITREPEVTCVVVDVSHEDPEVKFNWYVDGVEVHNAKTKPREEQYNSTYRVVSVLTVLHQDWLNGKEYKCKVSNKALPAPIEKTISKAKGQPREPQVYTLPPSREEMTKNQVSLSCAVKGFYPSDIAVEWESNGQPENNYKTTPPVLDSDGSFFLVSKLTVDKSRWQQGNVFSCSVMHEALHAKYTQKSLSLSPG
chain 2: EIVLTQSPATLSLSPGERATLSCRASESVDNYGMSFMNWFQQKPGQPPKLLIHAASNQGSGVPSRFSGSGSGTDFTLTISSLEPEDFAVYFCQQSKEVPYTFGGGTKVEIKRTVAAPSVFIFPPSDEQLKSGTASVVCLLNNFYPREAKVQWKVDNALQSGNSQESVTEQDSKDSTYSLSSTLTLSKADYEKHKVYACEVTHQGLSSPVTKSFNRGEC
chain 3: QVQLVQSGAEVKKPGASVKVSCKASGYSFTSYWMNWVRQAPGQGLEWIGVIHPSDSETWLDQKFKDRVTITVDKSTSTAYMELSSLRSEDTAVYYCAREHYGTSPFAYWGQGTLVTVSSASTKGPSVFPLAPSSKSTSGGTAALGCLVKDYFPEPVTVSWNSGALTSGVHTFPAVLQSSGLYSLSSVVTVPSSSLGTQTYICNVNHKPSNTKVDKRVEPKSCDKTHTCPPCPAPEAAGGPSVFLFPPKPKDTLYITREPEVTCVVVDVSHEDPEVKFNWYVDGVEVHNAKTKPREEQYNSTYRVVSVLTVLHQDWLNGKEYKCKVSNKALPAPIEKTISKAKGQPREPQVYTLPPSREEMTKNQVSLWCLVKGFYPSDIAVEWESNGQPENNYKTTPPVLDSDGSFFLYSKLTVDKSRWQQGNVFSCSVMHEALHNHYTQKSLSLSPGGGGSGGGSGGGDIVMTQTPLSLSVTPGQPASISCKSSQSLLHSDAKTYLNWLLQKPGQPPERLIYLVSELDSGVPDRFSGSGSGTDFTLKISRVEAEDVGVYYCWQGTHFPYTFGGGTKVEIKGGGSGGGGQVQLVQSGAEVKKPGASVKVSCKASGYSFTSYWMNWVRQAPGQGLEWIGVIHPSDSETWLDQKFKDRVTITVDKSTSTAYMELSSLRSEDTAVYYCAREHYGTSPFAYWGQGTLVTVSSGGCGGGEVAALEKEVAALEKEVAALEKEVAALEK
chain 4: EIVLTQSPATLSLSPGERATLSCRASESVDNYGMSFMNWFQQKPGQPPKLLIHAASNQGSGVPSRFSGSGSGTDFTLTISSLEPEDFAVYFCQQSKEVPYTFGGGTKVEIKGGGSGGGGQVQLVQSGAEVKKPGASVKVSCKASGYTFTNYGMNWVRQAPGQGLEWMGWINTYTGESTYADDFEGRFVFSMDTSASTAYLQISSLKAEDTAVYYCARESLYDYYSMDYWGQGTTVTVSSGGCGGGKVAALKEKVAALKEKVAALKEKVAALKE
As a reminder, the EC50 is the concentration at which the effect is half-maximal. By EC90 is commonly meant the point of the concentration-response curve where the effect stands at 90%. Low values mean an effect from little substance, high ones a need for much substance. A word on the IC50: it is the concentration that gives 50% inhibition. The low end stands for higher potency, the high end for lower potency. As for B1, the EC50 is 1430 nM in test [1] and 5010 nM in [5]. This molecule also yielded an EC90 in test [1] of 14600 nM. Also, the IC50 in test [2] came out at 570 nM; in test [3], 1530 nM; in [4], 839 nM.

B2: DART E (bispecific antibody, human IgG4 S228P, kappa)
chain 1: DIVMTQTPLSLSVTPGQPASISCKSSQSLLHSDAKTYLNWLLQKPGQPPERLIYLVSELDSGVPDRFSGSGSGTDFTLKISRVEAEDVGVYYCWQGTHFPYTFGGGTKVEIKGGGSGGGGQVQLVQSGAEVKKPGASVKVSCKASGYSFTSYWMNWVRQAPGQGLEWIGVIHPSDSETWLDQKFKDRVTITVDKSTSTAYMELSSLRSEDTAVYYCAREHYGTSPFAYWGQGTLVTVSSLGGGSGASTKGPSVFPLAPCSRSTSESTAALGCLVKDYFPEPVTVSWNSGALTSGVHTFPAVLQSSGLYSLSSVVTVPSSSLGTKTYTCNVDHKPSNTKVDKRVESKYGPPCPPCPAPEFLGGPSVFLFPPKPKDTLYITREPEVTCVVVDVSQEDPEVQFNWYVDGVEVHNAKTKPREEQFNSTYRVVSVLTVLHQDWLNGKEYKCKVSNKGLPSSIEKTISKAKGQPREPQVYTLPPSQEEMTKNQVSLTCLVKGFYPSDIAVEWESNGQPENNYKTTPPVLDSDGSFFLYSRLTVDKSRWQEGNVFSCSVMHEALHNHYTQKSLSLSLG
chain 2: EIVLTQSPATLSLSPGERATLSCRASESVDNYGMSFMNWFQQKPGQPPKLLIHAASNQGSGVPSRFSGSGSGTDFTLTISSLEPEDFAVYFCQQSKEVPYTFGGGTKVEIKGGGSGGGGQVQLVQSGAEVKKPGASVKVSCKASGYTFTNYGMNWVRQAPGQGLEWMGWINTYTGESTYADDFEGRFVFSMDTSASTAYLQISSLKAEDTAVYYCARESLYDYYSMDYWGQGTTVTVSSLGGGSGRTVAAPSVFIFPPSDEQLKSGTASVVCLLNNFYPREAKVQWKVDNALQSGNSQESVTEQDSKDSTYSLSSTLTLSKADYEKHKVYACEVTHQGLSSPVTKSFNRGEC
Turning to B2, the IC50 in test [6] amounted to 2950 nM; in [7] it was 3270 nM; in test [8] it was 1650 nM. Also, the concentration giving a half-maximal response (EC50) in test [9] was determined as 3220 nM; in [10] it was 925 nM.
